Target: T1, recombinant human VISTA-Fc protein (human, UniProt Q9H7M9 33-194)
T1 sequence (looked up): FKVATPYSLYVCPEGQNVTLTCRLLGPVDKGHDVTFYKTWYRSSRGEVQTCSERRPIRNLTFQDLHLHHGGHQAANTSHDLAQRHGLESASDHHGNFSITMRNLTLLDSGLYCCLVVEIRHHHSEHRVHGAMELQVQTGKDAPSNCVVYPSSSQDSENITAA
Test: ELISA

- EC50: 24 nM
B1: recombinant human VSIG3-Fc (Fc fusion, UniProt Q5DX21 23-241, looked up)
chain: LEVSESPGSIQVARGQPAVLPCTFTTSAALINLNVIWMVTPLSNANQPEQVILYQGGQMFDGAPRFHGRVGFTGTMPATNVSIFINNTQLSDTGTYQCLVNNLPDIGGRNIGVTGLTVLVPPSAPHCQIQGSQDIGSDVILLCSSEEGIPRPTYLWEKLDNTLKLPPTATQDQVQGTVTIRNISALSSGLYQCVASNAIGTSTCLLDLQVISPQPRNIG
modifications: biotin (biotinylated using Invitrogen kit #21455) in the inhibition assay

Reference: PMC8823246 (Journal for Immunotherapy of Cancer, 2022)
